Data: patent publication US20260139035A1 (NATIONAL UNIVERSITY CORPORATION KUMAMOTO UNIVERSITY, published 2026)

B1: 4-66 antibody (antibody, V domains shown)
VH: EVQLVESGGGLVQPGGSLRLSCAASGIIVSRNYMTWVRQAPGKGLEWVSVIYSGGTTYYADSVKGRFTTSRDDSKNTLYLQMNSLRGDDTAVYYCARDPPHRRGSYWGQGTLVTVSS
VL: DILMTQSPSSLSASVGDRVTITCQASQDINKYLNWYQQKPGKAPKLLIYDASNLETGVPSRFSGSGSGTDFSFTISSLQPEDVATYYCQQSDNLPPTFGQGTNVEIK
B2: 1-58 antibody (antibody, V domains shown)
VH: QVQLVQSGAEVKKPGASVRVSCKASGYSFTASYMHWVRQAPGQGLEWMAIINPGDDNTSYAQKFQGRVTLTRDTSTTTVYMELRSLRSEDTAVYYCTRSTRDYVWGNYRYTPGYYLDYWGQGTLVTVSS
VL: DIRMTQSPSSLSASVGDRVTITCRASQTISNYLNWYQQKPGKAPKLLIYAASSLQSGVPSRFSGSGSGTDFTLTISSLQPEDFATYYCQQGYITPITFGQGTRLEIK
B3: 1-44 antibody (antibody, V domains shown)
VH: EVQLVESGGGVVQPGSSLRLSCAASGFTFRSHAMHWVRQAPGKGLEGVAVIWYDGSNKYYADSVKGRFTISRDNSKNTLYLQMNSLRAEDTAVYYCAREGIAVPGNGADAFDIWGQGTMVTVSS
VL: DIQMTQSPSSLSASVGDRVTITCRASQSIGNFLNWYQQKPGKAPKLLIYAASSLQSGVPSRFSGSGSGTDFTLTISSLQPEDFATYYCQQTYSTPYTFGQGTKLEIK

Tests used:
Assay in all cases: cell-based or functional assay
[1] = molecular target: spike protein of SARS-CoV-2 Alpha strain (B.1.1.7) (SARS-CoV-2)
[2] = molecular target: spike protein of SARS-CoV-2 Lambda strain (C.37) (SARS-CoV-2)
[3] = molecular target: spike protein of SARS-CoV-2 Delta strain (B.1.617.2) (SARS-CoV-2)
[4] = molecular target: spike protein of SARS-CoV-2 Beta strain (B.1.351) (SARS-CoV-2)
[5] = molecular target: spike protein of SARS-CoV-2 Omicron BA.2.12.1 (SARS-CoV-2)
[6] = molecular target: spike protein of SARS-CoV-2 Omicron BA.3 (SARS-CoV-2)
[7] = molecular target: spike protein of SARS-CoV-2 Mu strain (B.1.621) (SARS-CoV-2)
[8] = molecular target: spike protein of SARS-CoV-2 Omicron BA.1 (SARS-CoV-2)
[9] = molecular target: spike protein of SARS-CoV-2 Omicron BA.4/5 (SARS-CoV-2)
[10] = molecular target: spike protein of SARS-CoV-2 prototype (614G) (SARS-CoV-2, UniProt P0DTC2 14-1273)
[11] = molecular target: spike protein of SARS-CoV-2 Kappa strain (B.1.617.1) (SARS-CoV-2)
[12] = molecular target: spike protein of SARS-CoV-2 Omicron BA.2 (SARS-CoV-2)
[13] = molecular target: spike protein of SARS-CoV-2 Gamma strain (P.1) (SARS-CoV-2)
[14] = molecular target: spike protein of SARS-CoV-2 Omicron BA.1.1 (SARS-CoV-2)

Binder	IC50, pseudovirus neutralization [1]	IC50, pseudovirus neutralization [2]	IC50, pseudovirus neutralization [3]	IC50, pseudovirus neutralization [4]	IC50, pseudovirus neutralization [5]	IC50, pseudovirus neutralization [6]	IC50, pseudovirus neutralization [7]	IC50, pseudovirus neutralization [8]	IC50, pseudovirus neutralization [9]	IC50, pseudovirus neutralization [10]	IC50, pseudovirus neutralization [11]	IC50, pseudovirus neutralization [12]	IC50, pseudovirus neutralization [13]	IC50, pseudovirus neutralization [14]
B1	< 0.21 µg/mL	< 0.21 µg/mL	< 0.21 µg/mL	< 0.21 µg/mL	< 0.21 µg/mL	< 0.21 µg/mL	< 0.21 µg/mL	< 0.21 µg/mL	< 0.21 µg/mL	< 0.21 µg/mL	< 0.21 µg/mL	< 0.21 µg/mL	< 0.21 µg/mL	< 0.21 µg/mL
B2	< 0.087 µg/mL	< 0.087 µg/mL	< 0.087 µg/mL	< 0.087 µg/mL	< 0.087 µg/mL	< 0.087 µg/mL	< 0.087 µg/mL	< 0.087 µg/mL	< 0.087 µg/mL	< 0.087 µg/mL	< 0.087 µg/mL	< 0.087 µg/mL	< 0.087 µg/mL	< 0.087 µg/mL
B3	< 0.47 µg/mL	< 0.47 µg/mL		< 0.47 µg/mL	< 0.47 µg/mL	< 0.47 µg/mL		< 0.47 µg/mL		< 0.47 µg/mL	< 0.47 µg/mL	< 0.47 µg/mL	< 0.47 µg/mL	< 0.47 µg/mL
